Laboratory results: article PMC7573591 (Nature Communications, 2020)

Experiments:
purified protein [1] = substrate: CC(C)=CCC/C(C)=C/CC/C(C)=C/CO[P@@](=O)(O)OP(=O)(O)O; test: purified protein; type: biochemical, Homo sapiens; conditions: 100 μM IPP, 0.5 mM MgCl2, pH 7.5, 30 °C, 0.02% Triton X-100
purified protein [2] = substrate: C=C(C)CCO[P@@](=O)(O)OP(=O)(O)O; test: purified protein; conditions: 10 μM FPP, 0.5 mM MgCl2, pH 7.5, 30 °C, 0.02% Triton X-100, labelled compound
[3] = biological target: the molecule itself; test: cross-linking; about 8 µM purified shcis-PT with 0.005% glutaraldehyde, room temperature, 15 min; products analysed by SDS-PAGE

Protein	Km (purified protein [1]) [µM]	kcat (purified protein [1]) [s⁻¹]	Km (purified protein [2]) [µM]	kcat (purified protein [2]) [s⁻¹]	binding result [3]
shcis-PT (soluble human cis-prenyltransferase complex, DHDDS-sNgBR) (Homo sapiens) (protein, full-length DHDDS 1-333 plus cytosolic NgBR 73-293 (no transmembrane domain); co-expressed in E. coli; TRX fusions, His- and Strep-tags cut by TEV) chain 1: MSWIKEGELSLWERFCANIIKAGPMPKHIAFIMDGNRRYAKKCQVERQEGHSQGFNKLAETLRWCLNLGILEVTVYAFSIENFKRSKSEVDGLMDLARQKFSRLMEEKEKLQKHGVCIRVLGDLHLLPLDLQELIAQAVQATKNYNKCFLNVCFAYTSRHEISNAVREMAWGVEQGLLDPSDISESLLDKCLYTNRSPHPDILIRTSGEVRLSDFLLWQTSHSCLVFQPVLWPEYTFWNLFEAILQFQMNHSVLQKARDMYAEERKRQQLERDQATVTEQLLREGLQASGDAQLRRTRLHKLSARREERVQGFLQALELKRADWLARLGTASA chain 2: RGGSCLAAAHHRMRWRADGRSLEKLPVHMGLVITEVEQEPSFSDIASLVVWCMAVGISYISVYDHQGIFKRNNSRLMDEILKQQQELLGLDCSKYSPEFANSNDKDDQVLNCHLAVKVLSPEDGKADIVRAAQDFCQLVAQKQKRPTDLDVDTLASLLSSNGCPDPDLVLKFGPVDSTLGFLPWHIRLTEIVSLPSHLNISYEDFFSALRQYAACEQRLGK	0.11 ± 0.01	0.74 ± 0.02	6.23 ± 1.50	0.74 ± 0.02	–
dehydrodolichyl diphosphate synthase (DHDDS), full-length human, residues 1-333 (enzyme, UniProt Q86SQ9 1-333, looked up, human dehydrodolichyl diphosphate synthase (DHDDS), full length, residues 1-333, UniProt Q86SQ9; Cloned into pET-32b as a TRX fusion with a TEV site; tags and TRX removed by TEV protease before the final size-exclusion step; also called DHDD synthase; catalytic subunit of hcis-PT / shcis-PT / xcis-PT) MSWIKEGELSLWERFCANIIKAGPMPKHIAFIMDGNRRYAKKCQVERQEGHSQGFNKLAETLRWCLNLGILEVTVYAFSIENFKRSKSEVDGLMDLARQKFSRLMEEKEKLQKHGVCIRVLGDLHLLPLDLQELIAQAVQATKNYNKCFLNVCFAYTSRHEISNAVREMAWGVEQGLLDPSDISESLLDKCLYTNRSPHPDILIRTSGEVRLSDFLLWQTSHSCLVFQPVLWPEYTFWNLFEAILQFQMNHSVLQKARDMYAEERKRQQLERDQATVTEQLLREGLQASGDAQLRRTRLHKLSARREERVQGFLQALELKRADWLARLGTASA	–	–	–	–	binds
